Test results reported in patent US20230112123A1 (IMMUNEONCO BIOPHARMACEUTICALS SHANGHAI, published 2023).
Numbering of substitutions follows the chain as printed. In names and notes the source's numbering stands.

B1: IMM40C (antibody, human IgG1, kappa, V domains shown)
VH: QVQLQQSGPEVVRPGVSVKISCKGSGYTFTDSALHWVKQSHAKSLEWIGVISTYDGDTDYNQKFKGKATMTVDKSSSTAYMELARLTSEDSAIYYCARRGYYDYDWFPYWGQGTLVTVSA
VL: DIVLTQSPASLAISLGQRATISCRASKSVSASGYSFLHWYQQKPGQPPKLLIYLASNLESGVPARFSGSGSGTDFTLNIHPVEEEDAATFYCQHSRELPPTFGGGTKLEIKR
notes: Chimeric IgG: mouse variable regions with human IgG1 and human kappa constant regions; expressed in CHO-S cells
B2: Cusatuzumab (antibody, human IgG1, lambda, V domains shown)
VH: EVQLVESGGGLVQPGGSLRLSCAASGFTFSVYYMNWVRQAPGKGLEWVSDINNEGGTTYYADSVKGRFTISRDNSKNSLYLQMNSLRAEDTAVYYCARDAGYSNHVPIFDSWGQGTLVTVSS
VL: QAVVTQEPSLTVSPGGTVTLTCGLKSGSVTSDNFPTWYQQTPGQAPRLLIYNTNTRHSGVPDRFSGSILGNKAALTITGAQADDEAEYFCALFISNPSVEFGGGTQLTVLG
notes: Anti-CD70 IgG used as comparator
B3: IMM40H (antibody, human IgG1, kappa, V domains shown)
VH: QVQLVQSGAEVKKPGASVKVSCKVSGYTFTDSALHWVRQAPGKGLEWMGVISTYDGDTDYNQKFKGRVTMTEDTSTDTAYMELSSLRSEDTAVYYCARRGYYDYDWFPYWGQGTLVTVSA
VL: DIVLTQSPASLAVSPGQRATITCRASKSVSASGYSFLHWYQQKPGQPPKLLIYLASNLESGVPARFSGSGSGTDFTLTINPVEANDTANYYCQHSRELPPTFGGGTKVEIKR
notes: Humanized IgG1/kappa; X=N for IMM40H; N85 is a glycosylation site in the light chain variable region; also called IMM4OH
B4: IMM40M (antibody, human IgG1, kappa, V domains shown)
VH: B3 VH
VL: B3 VL with N85E
notes: IMM40H with N85E in the light chain variable region, which removes a glycosylation site; also called IMM4OM

What was measured:
[1] = biological target: T1, human CD70 (human, UniProt P32970 1-193); test: flow cytometry on CHO cells expressing human CD70
T1 construct: whole, on cells; Stated as human for the CHO transfectants; also called cell surface CD70s
T1 sequence (looked up): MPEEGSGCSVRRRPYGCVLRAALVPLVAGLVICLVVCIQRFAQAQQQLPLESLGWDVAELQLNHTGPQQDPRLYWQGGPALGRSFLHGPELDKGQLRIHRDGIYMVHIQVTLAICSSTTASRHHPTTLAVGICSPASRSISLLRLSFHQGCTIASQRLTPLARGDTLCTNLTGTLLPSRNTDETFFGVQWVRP
Description: (§1) Cells were washed with 1% BSA-PBS once, and then incubated with 100 μl 1:500 diluted FITC-conjugated secondary antibody against human IgG-Fc (Cat #F9512, Sigma) at 4° C. for 45 min. Cells were washed once with 1% BSA-PBS, re-suspended in 200 μl 1% BSA-PBS, and then subject to FACS analysis using a flow cytometer (Merck Millipore, Guava® easyCyte 5HT).

[2] = biological target: T1, human CD70; test: flow cytometry on CD47+CD70+ Raji cells
[3] = biological target: T1, human CD70; test: flow cytometry on CD70+ CHO cells
Description: as §1

Row | Binder | binding result [3] | other results
1 | B1 | – | binding result [1]: binds
2 | B2 | – | binding result [2]: binds
3 | B3 | binds | –
4 | B4 | binds | –
